From US20220380471A1 (US Dept. of Health and Human Services, published 2022)

Key:
[1] = molecular target: IgG control; experiment: phage ELISA
Outline: (§1)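 Camel VHH phage were panned on recombinant B7H3-Fc protein for 3 rounds, using libraries from eight individual camels. Binding of the selected phage to immobilised antigens (human and other-species B7H3 or control proteins) was measured by phage ELISA and recorded as the ELISA signal.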

[2] = molecular target: T1, hB7H3-His (human, UniProt Q5ZPR3 29-461, limits assumed); experiment: ELISA, purified VHH
T1 construct: not shown: His tag
T1 sequence (looked up): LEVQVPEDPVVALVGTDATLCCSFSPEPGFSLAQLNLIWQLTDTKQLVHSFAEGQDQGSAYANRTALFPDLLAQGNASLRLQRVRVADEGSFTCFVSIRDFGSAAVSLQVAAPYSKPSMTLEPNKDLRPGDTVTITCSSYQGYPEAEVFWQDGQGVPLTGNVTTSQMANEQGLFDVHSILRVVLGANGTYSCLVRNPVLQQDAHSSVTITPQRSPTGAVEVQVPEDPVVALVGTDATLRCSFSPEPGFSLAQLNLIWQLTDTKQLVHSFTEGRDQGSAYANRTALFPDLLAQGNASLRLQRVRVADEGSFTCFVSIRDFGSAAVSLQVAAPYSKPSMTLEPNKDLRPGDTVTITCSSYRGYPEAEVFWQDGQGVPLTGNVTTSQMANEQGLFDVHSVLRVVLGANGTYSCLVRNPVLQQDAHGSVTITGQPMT
Outline: (§2)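 Camel VHH nanobodies were selected by phage panning against recombinant B7H3-Fc and then purified. An ELISA measured their binding to immobilised recombinant proteins, both B7H3 fusion proteins and proteins unrelated to B7H3. The values are the ELISA signal.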

[3] = molecular target: T2, monkey B7H3-His (monkey); experiment: ELISA, purified VHH
T2 chain: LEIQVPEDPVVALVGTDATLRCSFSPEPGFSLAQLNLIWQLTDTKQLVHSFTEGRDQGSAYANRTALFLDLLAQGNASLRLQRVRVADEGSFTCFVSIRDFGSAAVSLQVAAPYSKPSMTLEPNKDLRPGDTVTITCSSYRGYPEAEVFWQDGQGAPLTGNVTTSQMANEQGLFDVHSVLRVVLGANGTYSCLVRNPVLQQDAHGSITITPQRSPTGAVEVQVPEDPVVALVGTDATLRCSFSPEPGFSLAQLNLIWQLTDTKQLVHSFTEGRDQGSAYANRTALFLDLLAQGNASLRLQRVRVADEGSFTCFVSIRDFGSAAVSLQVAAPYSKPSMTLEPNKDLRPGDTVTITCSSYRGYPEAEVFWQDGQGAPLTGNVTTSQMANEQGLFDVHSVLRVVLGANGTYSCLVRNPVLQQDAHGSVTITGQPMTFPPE
Outline: as §2

[4] = molecular target: T1, hB7H3-His; experiment: ELISA, purified VHH; remark: listed apart in the source
Outline: as §2

[5] = molecular target: T3, rat B7H3-His (rat, UniProt Q7TPB4 29-244, limits assumed); experiment: ELISA, purified VHH
T3 construct: not shown: His tag
T3 sequence (looked up): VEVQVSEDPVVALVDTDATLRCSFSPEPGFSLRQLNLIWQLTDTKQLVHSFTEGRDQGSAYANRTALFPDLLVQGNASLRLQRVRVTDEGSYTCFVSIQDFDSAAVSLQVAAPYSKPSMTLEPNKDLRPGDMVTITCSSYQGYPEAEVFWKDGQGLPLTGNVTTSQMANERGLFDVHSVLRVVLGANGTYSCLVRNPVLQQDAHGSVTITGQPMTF
Outline: as §2

[6] = molecular target: Non-relevant antigen; experiment: ELISA, purified VHH
Outline: as §2

[7] = molecular target: T2, monkey B7H3-His; experiment: phage ELISA, cross-species
Outline: as §1

[8] = molecular target: T3, rat B7H3-His; experiment: phage ELISA, cross-species
Outline: as §1

[9] = molecular target: T4, mouse B7H3-His (mouse, UniProt Q8VE98 29-244, limits assumed); experiment: phage ELISA, cross-species
T4 construct: also called recombinant mouse B7H3-His protein; not shown: His tag
T4 sequence (looked up): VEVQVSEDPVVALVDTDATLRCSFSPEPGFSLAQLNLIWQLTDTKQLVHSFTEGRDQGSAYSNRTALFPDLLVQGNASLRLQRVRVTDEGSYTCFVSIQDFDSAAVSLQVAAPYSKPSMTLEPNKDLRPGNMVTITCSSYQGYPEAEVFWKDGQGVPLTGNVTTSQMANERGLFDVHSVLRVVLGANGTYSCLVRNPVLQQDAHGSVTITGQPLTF
Outline: as §1

[10] = molecular target: T5, human B7H3 (human, UniProt Q5ZPR3 29-466, limits assumed); experiment: phage ELISA, cross-species
T5 construct: also called human B7H3 protein
T5 sequence (looked up): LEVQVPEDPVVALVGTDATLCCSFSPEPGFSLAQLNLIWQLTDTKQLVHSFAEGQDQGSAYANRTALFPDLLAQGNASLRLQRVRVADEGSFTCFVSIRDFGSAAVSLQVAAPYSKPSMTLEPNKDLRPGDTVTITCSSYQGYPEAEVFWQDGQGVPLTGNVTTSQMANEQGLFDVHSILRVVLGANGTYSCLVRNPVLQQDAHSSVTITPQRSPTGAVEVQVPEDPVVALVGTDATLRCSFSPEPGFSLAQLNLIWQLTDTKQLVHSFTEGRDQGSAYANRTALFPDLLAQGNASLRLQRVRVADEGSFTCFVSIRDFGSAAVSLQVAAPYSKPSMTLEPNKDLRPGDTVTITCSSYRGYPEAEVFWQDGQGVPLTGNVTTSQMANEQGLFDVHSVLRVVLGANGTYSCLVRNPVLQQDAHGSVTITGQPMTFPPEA
Outline: as §1

[11] = molecular target: Non-relevant antigen; experiment: phage ELISA, cross-species
Outline: as §1

[12] = molecular target: PD-L1; experiment: ELISA, purified VHH, cross-reaction
[13] = molecular target: T6, B7H3-hFc (human, UniProt Q5ZPR3 29-456); experiment: ELISA, B7H3-hFc coated, VH-His-FLAG detected with anti-FLAG-HRP
T6 construct: also called recombinant B7H3-hFc; B7H3 ECD fused with human IgG1 Fc; not shown: human IgG1 Fc
T6 sequence: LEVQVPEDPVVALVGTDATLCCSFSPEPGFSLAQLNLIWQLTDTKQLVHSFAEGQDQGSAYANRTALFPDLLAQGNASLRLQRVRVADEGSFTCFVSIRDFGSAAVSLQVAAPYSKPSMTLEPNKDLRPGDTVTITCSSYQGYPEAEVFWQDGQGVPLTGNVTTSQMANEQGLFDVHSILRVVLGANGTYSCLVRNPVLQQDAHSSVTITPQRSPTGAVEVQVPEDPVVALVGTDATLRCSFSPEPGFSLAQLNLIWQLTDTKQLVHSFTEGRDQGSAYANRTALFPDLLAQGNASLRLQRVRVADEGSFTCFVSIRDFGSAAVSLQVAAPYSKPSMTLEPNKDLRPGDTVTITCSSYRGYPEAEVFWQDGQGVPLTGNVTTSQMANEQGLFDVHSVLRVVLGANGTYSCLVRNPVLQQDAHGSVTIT
Excerpt: FIGS. 4A-4C: Binding properties of the B7H3 binders. (FIG. 4A) SDS-PAGE analysis of the purified A1 and B1 binders (VH-His-FLAG fusion) from E. coli. Two micrograms of purified B7H3-hFc, non-reduced (Non.) or reduced (Red.) by β-mercaptoethanol, were separated on an 8% SDS-PAGE gel. Protein bands were visualized by Coomassie blue R-250 staining. (FIG. 4B) Protein binding affinity measurement by ELISA. Five micrograms of B7H3-hFc were coated on the ELISA plate, and different concentrations of domain antibodies were incubated with the plate, and binding was detected by HRP conjugated anti-FLAG mouse monoclonal antibody M2. The binding curves were plotted using the software GraphPad Prism and the calculated EC50 values were determined by the software's algorithm of hyperbola one site binding. (FIG. 4C) Cell binding determination by flow cytometry. Ten microgram per mL domain antibody was co-incubated with one million cells. Antibody binding was visualized by APC conjugated anti-FLAG monoclonal antibody. The curves labelled “1” represent cells stained with secondary antibody only; the curves labelled “2” represent cells stained with A1 or B1 domain antibody.
The VH coding sequences of binders A1 and B1 were fused with His-FLAG tag at their C-termini and cloned into an E. coli expression vector. […] The purified yield was 2 mg/L (A1) and 10 mg/L fermentation (B1) respectively. […]

Chain of PD-L1 (Q9NZQ7 whole entry): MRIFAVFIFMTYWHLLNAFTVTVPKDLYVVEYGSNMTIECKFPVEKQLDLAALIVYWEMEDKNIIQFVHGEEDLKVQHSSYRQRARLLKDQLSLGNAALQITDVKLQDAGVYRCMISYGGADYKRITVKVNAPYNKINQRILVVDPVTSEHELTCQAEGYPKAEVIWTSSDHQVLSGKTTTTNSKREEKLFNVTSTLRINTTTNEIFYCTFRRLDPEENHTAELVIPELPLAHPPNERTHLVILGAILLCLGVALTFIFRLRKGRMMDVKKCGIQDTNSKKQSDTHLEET

B1: RWB2 (VHH)
VHH: AVQLVDSGGGSVQAGGSLRLSCVVSGYAFSTYDMAWFRQAPGEKCEWVSTVTNNGRTFYADSVKGRFIISRDNAKNILYLQMNSLKPEDTAVYSCAAAGVRWRCASGGNEGTQVTVSS
notes: Camel VHH; tag not described; also called camel antibody RWB2
With B1 the ELISA signal [1] was 0.0777, the binding result [2] was “no binding” and the ELISA signal [3] was 0.0799. For the same binder, the ELISA signal [4] was 0.152, the ELISA signal [5] was 0.0986 and the ELISA signal [6] was 0.115. It also gave an ELISA signal [7] of 0.578, an ELISA signal [8] of 0.981 and an ELISA signal [9] of 1.05. It also gave an ELISA signal [10] of 2.53, an ELISA signal [11] of 0.0684 and an ELISA signal [12] of 0.0522.

B2: RFB1 (other)
VH: QEQLKESGGRLVTPGTPLTLTCTVSGFSPNNYGVSWVRQPPGKGLEWIGMSSTAGATYYANWAKGRFTISKTSTTVDLEITSPTTEDTATYFCAKGTPSLSYGNIWGPGTLVTVSSGGGGSGGGGSGGGGSAQGPTQTPGGGGSGTEVVVK
notes: Rabbit VH single-domain antibody expressed in E. coli as VH-His-FLAG fusion; also called rabbit antibody RFB1; R1-B1; not shown: 6x His tag and FLAG tag at the C-terminus
B2 was tested, and the EC50 [13] was 189 nM.
